Data from patent US20210317178A1 (D AND D PHARMATECH, published 2021).
Positions of bridges follow the written chain, without caps; N, C: chain ends. Non-standard residues stand in square brackets, D forms with d. No end group written: not given here. tri‑branched mPEG‑MAL 50 kDa = tri-branched maleimide-activated monomethoxy PEG, 50 kDa; Aib = CC(C)(N)C(=O)O

Tests used:
[1] = molecular target: human GLP-1 receptor (human, UniProt P43220 24-463); test: cell-based or functional assay
[2] = molecular target: human glucagon receptor (GCGR) (human, UniProt P47871 26-477); test: cell-based or functional assay
Chain of human glucagon receptor (GCGR) (P47871 26-477): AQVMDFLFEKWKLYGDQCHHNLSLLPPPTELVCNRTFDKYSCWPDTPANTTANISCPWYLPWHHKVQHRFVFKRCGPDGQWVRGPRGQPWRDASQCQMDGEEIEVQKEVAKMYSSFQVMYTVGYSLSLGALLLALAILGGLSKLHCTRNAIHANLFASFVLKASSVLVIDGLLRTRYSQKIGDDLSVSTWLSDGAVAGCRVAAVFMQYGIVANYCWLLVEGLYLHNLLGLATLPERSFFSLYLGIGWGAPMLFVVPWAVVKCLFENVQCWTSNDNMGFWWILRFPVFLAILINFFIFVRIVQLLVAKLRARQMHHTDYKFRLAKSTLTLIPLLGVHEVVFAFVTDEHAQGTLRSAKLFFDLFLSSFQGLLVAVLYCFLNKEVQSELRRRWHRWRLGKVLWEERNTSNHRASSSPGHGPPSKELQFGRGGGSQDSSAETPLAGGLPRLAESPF

Row | Binder | EC50 of GLP-1 receptor (nM); cAMP (luciferase reporter) in HEK293/CRE-Luc cells [1] [nM] | EC50 of glucagon receptor (GCGR) (nM); cAMP in CHO-K1 cells [2] [nM]
1 | H[Aib]QGTFTSDYSKYLDEQAAKEFVQWLMNTC (lactam 16-20) [polypeptide of Example 1 (polypeptide into which cysteine was introduced, SEQ ID NO. 2)] | 0.13 | 38.6
2 | H[Aib]QGTFTSDYSKYLDEQAAKEFVQWLMNTC(tri‑branched mPEG‑MAL 50 kDa) (lactam 16-20) [conjugate of Example 2 (polypeptide of SEQ ID NO. 2 bound to tri-branched mPEG-MAL, MW 50 kDa)] | 2.12 | 47
